Experimental data reported in patent US20110294740A1 (RESEARCH FOUNDATION FOR THE STATE UNIVERSITY OF NEW YORK, published 2011).

B1: myelin basic protein (purified MBP) (other, human, UniProt P02686-5 2-171, looked up)
chain: ASQKRPSQRHGSKYLATASTMDHARHGFLPRHRDTGILDSIGRFFGGDRGAPKRGSGKDSHHPARTAHYGSLPQKSHGRTQDENPVVHFFKNIVTPRTPPPSQGKGRGLSLSRFSWGAEGQRPGFGYGGRASDYKSAHKGFKGVDAQGTLSKIFKLGGRDSRSGSPMARR
notes: also called intact MBP

What was measured:
wild-type Aβ42 peptide = target: T1, wild-type Aβ42 peptide (UniProt P05067 672-713); assay: SPR, Aβ peptide immobilised, MBP as analyte
T1 construct: domain: Aβ42; Free in co-immunoprecipitation; also called Aβ42WT
T1 sequence (P05067 672-713 limits assumed): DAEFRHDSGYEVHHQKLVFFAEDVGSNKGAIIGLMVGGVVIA

[1] = target: B1; assay: dot blot: peptide immobilised on nitrocellulose, incubated with MBP, detected with mAb 384
Method: Dot Blot Analysis. […] Insulin (Sigma) was resuspended to 2 mg/ml in water at pH 2.0 and diluted to 2 μg/ml in Tris-buffered saline. 1 μg of each was immobilized onto Hybond ECL nitrocellulose membranes using a Bio-Dot microfiltration apparatus (Bio-Rad) according to the manufacturer's instructions. Each membrane was removed from the apparatus following immobilization and blocked overnight in 5% BSA and PBS at 4° C. […] The membrane was washed 3×10 min with 5% BSA, PBS, and 0.05% Tween 20 and incubated with mAb 384 (1:2000 dilution) for 1 h at room temperature. The membrane was next washed […] with PBS and 0.05% Tween 20 and incubated with horseradish peroxidase-conjugated sheep antimouse IgG (1:2000 dilution) for 1 h at room temperature. Detection and quantitation were performed as described above.

Row | Binder | Kd (wild-type Aβ42 peptide) [µM] | binding result [1]
1 | B1 | 0.043 | 
2 | PEERHLSKMQQNGYENPTYK (also called AβPP-(744-763)) [APP 744-763] |  | no binding (tested: 1 g/ml MBP (as printed in paragraph 99))
3 | RGRKQCKTHPHFVIPYRCLV [APP 100-119] |  | no binding (tested: 1 g/ml MBP (as printed in paragraph 99))
